For this assay, the target named is T1, full length FH (Homo sapiens, UniProt P08603).
T1 construct: Purification of Full-Length Factor H from Human Serum; from tissue; host or cells: human serum
Briefly: Binding of full length FH to untreated and N-glycosidase F-treated FMOD. The following applies: p<10-4 for all data points above zero. As for the experimental part:
FMOD was isolated from bovine articular cartilage (Heinghrd et al., (1986) J. Biol. Chem. 261, 13866-13872) and recombinant CRP was obtained from Calbiochem. Deglycosylated FMOD was prepared by treatment with N-glycosiadase F (Roche Applied Science) as previously described (Sjöberg et al. (2005) J. Biol. Chem. 280, 32301-32308).
CRP or FMOD was coated overnight at 4° C. onto microtiter plates (Maxisorp, Nunc) at a concentration of 10 μg/ml in 75 mM sodium carbonate buffer, pH 9.6. Wells treated only with coating buffer or 1% (w/v) BSA (Sigma) in coating buffer (for the assays involving FMOD) were used as negative controls. Between each step the wells were washed extensively with 50 mM Tris-HCl, 150 mM NaCl, 0.1% (v/v) Tween 20, pH 7.5. All wells were blocked with 1% (w/v) BSA (Sigma) in phosphate buffered saline (Invitrogen) for 1 hour at 37° C. […] The amount of bound protein was assessed using a goat polyclonal anti-FH antibody (Quidel, Cat # A312) followed by HRP-labeled anti-goat secondary antibodies (Dako) and the OPD development kit (Dako). Detection of biotinylated protein was performed using a StreptABComplex/HRP-kit from Dako, and in both cases the absorbance at 490 nm was measured to quantify protein binding.

T1 sequence (P08603 19-1231): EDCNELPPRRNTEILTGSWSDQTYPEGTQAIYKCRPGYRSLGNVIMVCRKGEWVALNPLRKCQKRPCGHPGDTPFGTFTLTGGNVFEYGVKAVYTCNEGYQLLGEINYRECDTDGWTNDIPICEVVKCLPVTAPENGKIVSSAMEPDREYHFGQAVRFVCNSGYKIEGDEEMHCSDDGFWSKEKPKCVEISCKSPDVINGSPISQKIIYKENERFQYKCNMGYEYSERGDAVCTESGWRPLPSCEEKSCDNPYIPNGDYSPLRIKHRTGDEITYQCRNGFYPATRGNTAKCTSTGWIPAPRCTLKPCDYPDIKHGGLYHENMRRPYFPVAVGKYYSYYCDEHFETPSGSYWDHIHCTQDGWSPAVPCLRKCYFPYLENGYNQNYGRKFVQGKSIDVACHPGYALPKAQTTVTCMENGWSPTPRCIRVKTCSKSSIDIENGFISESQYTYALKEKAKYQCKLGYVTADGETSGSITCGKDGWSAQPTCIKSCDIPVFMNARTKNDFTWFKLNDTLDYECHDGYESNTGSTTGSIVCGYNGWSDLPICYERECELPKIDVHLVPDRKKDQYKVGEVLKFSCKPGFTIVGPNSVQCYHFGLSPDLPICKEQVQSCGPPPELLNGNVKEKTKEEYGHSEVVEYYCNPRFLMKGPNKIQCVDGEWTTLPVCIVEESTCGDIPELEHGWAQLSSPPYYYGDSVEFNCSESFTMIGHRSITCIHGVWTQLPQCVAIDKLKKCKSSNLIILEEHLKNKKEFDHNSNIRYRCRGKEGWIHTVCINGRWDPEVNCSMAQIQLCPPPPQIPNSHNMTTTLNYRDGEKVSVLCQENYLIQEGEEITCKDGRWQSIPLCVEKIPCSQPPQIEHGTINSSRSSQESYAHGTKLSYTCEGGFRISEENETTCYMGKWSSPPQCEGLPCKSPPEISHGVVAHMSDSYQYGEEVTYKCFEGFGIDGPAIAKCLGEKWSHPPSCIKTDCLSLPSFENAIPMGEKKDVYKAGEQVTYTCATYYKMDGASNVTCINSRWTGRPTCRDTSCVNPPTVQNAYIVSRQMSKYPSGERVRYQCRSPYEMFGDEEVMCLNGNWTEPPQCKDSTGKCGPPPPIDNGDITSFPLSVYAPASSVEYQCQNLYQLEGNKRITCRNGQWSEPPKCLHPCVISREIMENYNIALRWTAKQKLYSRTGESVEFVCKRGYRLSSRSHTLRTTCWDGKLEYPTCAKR

B1: deglycosylated FMOD: fibromodulin from bovine articular cartilage treated with N-glycosidase F to remove N-linked oligosaccharides including keratan sulphate (protein)
chain: QYEEDSHWWFQFLRNQQSTYDDPYDPYPYEPYEPYPYGGEEGPAYAYGSPPQPEPRDCPQECDCPPNFPTAMYCDNRNLKYLPFVPSRMKYVYFQNNQISSIQEGVFDNATGLLWIALHGNQITSDKVGKKVFSKLRHLERLYLDHNNLTRIPSPLPRSLRELHLDHNQISRVPNNALEGLENLTALYLHHNEIQEVGSSMKGLRSLILLDLSYNHLRKVPDGLPSALEQLYLEHNNVFSVPDSYFRGSPKLLYVRLSHNSLTNNGLASNTFNSSSLLELDLSYNQLQKIPPVSTNLENLYLQGNRINEFSISSFCTVVDVMNFSKLQVLRLDGNEIKRSAMPADAPLCLRLASLIEI
Turning to B1, the “binding of FH compared to keratan sulphate-containing FMOD” value is “significantly better”.

The values above are taken from patent US7829301B2, “Screening assays for binding antagonists of the AMD-associated variant of factor H (H384)” (The University of Manchester, priority 2006, dated 2010).
